In paper PMC4840315:

Assays:
insulin [1] = assay: ligand dot blot (densitometric analysis of dots); settings: 2.5 μl (0.09 mg/ml) protein dotted on nitrocellulose; 1 μg/ml insulin, 4 °C overnight; parent: est. 0.12; read off a plot
insulin [2] = assay: pull-down (Ni-Sepharose 6 column, Western blot with anti-insulin antibody, densitometric analysis of bands); settings: 0.1 mg His6-tagged-IGFBP7 mixed with 0.5 mg insulin; parent: est. 0.20; read off a plot

| response (insulin [1]) [Gradation] | response (insulin [2]) [Gradation] | Substance |
| --- | --- | --- |
| 0.53 | – | wild-type IGFBP7 (insulin-like growth factor binding protein 7), His6-tagged (from UniProt Q16270) R198E |
| 0.025 | 0.1 | wild-type IGFBP7 (insulin-like growth factor binding protein 7), His6-tagged (from UniProt Q16270) R198I; H200F |
| 0.11 | – | wild-type IGFBP7 (insulin-like growth factor binding protein 7), His6-tagged (from UniProt Q16270) H200F |
